Source: publication PMC10914751 (Nature Communications, 2024)

B1: Plk4 CPB(581–808) (domain or fragment, UniProt O00444 581-808, looked up)
chain: GYQNRTLRSITSPLVAHRLKPIRQKTKKAVVSILDSEEVCVELVKEYASQEYVKEVLQISSDGNTITIYYPNGGRGFPLADRPPSPTDNISRYSFDNLPEKYWRKYQYASRFVQLVRSKSPKITYFTRYAKCILMENSPGADFEVWFYDGVKIHKTEDFIQVIEKTGKSYTLKSESEVNSLKEEIKMYMDHANEGHRICLALESIISEEERKTRSAPFFPIIIGRKPG
notes: Polo-like kinase 4 (Plk4), cryptic polo-box (CPB), residues 581-808; a TEV site follows His-MBP and the legends call the protein CPB(581–808); Two CPB chains are estimated for each Vpr•VprBP; source: E. coli, purified
B2: VprBP (transfected; construct not specified in the text) (natural protein)
chain: not shown
notes: VprBP (DDB1-CUL4-Associated Factor 1); may be full length or a WD40-containing fragment, and in some panels perhaps the endogenous protein; source: HEK293T, transfected, in lysate
B3: Vpr (co-expressed with VprBP WD40-AR in insect cells) (natural protein)
chain: MEQAPEDQGPQREPYNEWTLELLEELKSEAVRHFPRIWLHNLGQHIYETYGDTWAGVEAIIRILQQLLFIHFRIGCRHSRIGVTRQRRARNGASRS
notes: also called 11-kDa Vpr
B4: VprBP WD40-AR(1057–1507) (domain or fragment)
chain: not shown
notes: source: Trichoplusia ni (Tni)-FNL insect cells, purified (HisTrap, TEV digestion, SEC); not shown: His, N-terminal, cleaved; MBP, N-terminal, cleaved

How the values were obtained:
[1] = target: T1, Vpr•VprBP WD40-AR complex ( | HIV-1 (NL4-3 isolate), UniProt Q9Y4B6 1057-1507; P12520 1-96); assay: SEC; purified proteins (Vpr, VprBP WD40-AR, Plk4 CPB, DDB1); TEV-digested HisTrap eluate of Vpr•VprBP mixed with Plk4 CPB; 20 mM Tris-HCl pH 7.5, 100 mM NaCl, 10% glycerol; stoichiometry estimated from Coomassie intensity; settings: both partners purified
T1 construct: DNA synthesised by GenScript; TEV digestion is told for the SEC sample; also called VprBP (WD40-AR)•Vpr complex; source: Trichoplusia ni (Tni)-FNL insect cells, co-expressed, purified (HisTrap, TEV digestion); not shown: His, N-terminal, cleaved; MBP, N-terminal, cleaved; copies: 1 + 1

Plk1 = target: T2, Plk1 (UniProt P53350 1-603); assay: co-IP; HEK293T cells transfected with the indicated constructs; TBSN buffer (20 mM Tris-HCl pH 8.0, 120 mM NaCl, 0.5% Nonidet P-40, 5 mM EGTA, 1.5 mM EDTA, 2 mM DTT); immunoblot; Supplementary Fig. 2b under thymidine or nocodazole treatment; settings: partners not purified
T2 construct: Polo-like kinase 1 (Plk1); also called mitotic Plk1; source: HEK293T, transfected, in lysate

Plk4 CPB(581–808) = target: B1; assay: SEC; purified proteins (Vpr, VprBP WD40-AR, Plk4 CPB, DDB1); TEV-digested HisTrap eluate of Vpr•VprBP mixed with Plk4 CPB; 20 mM Tris-HCl pH 7.5, 100 mM NaCl, 10% glycerol; stoichiometry estimated from Coomassie intensity; settings: both partners purified
DDB1 (purified) = target: T3, DDB1 (purified) (UniProt Q16531 1-1140); assay: as above; settings: both partners purified
T3 construct: DDB1
T3 sequence (Q16531 whole entry): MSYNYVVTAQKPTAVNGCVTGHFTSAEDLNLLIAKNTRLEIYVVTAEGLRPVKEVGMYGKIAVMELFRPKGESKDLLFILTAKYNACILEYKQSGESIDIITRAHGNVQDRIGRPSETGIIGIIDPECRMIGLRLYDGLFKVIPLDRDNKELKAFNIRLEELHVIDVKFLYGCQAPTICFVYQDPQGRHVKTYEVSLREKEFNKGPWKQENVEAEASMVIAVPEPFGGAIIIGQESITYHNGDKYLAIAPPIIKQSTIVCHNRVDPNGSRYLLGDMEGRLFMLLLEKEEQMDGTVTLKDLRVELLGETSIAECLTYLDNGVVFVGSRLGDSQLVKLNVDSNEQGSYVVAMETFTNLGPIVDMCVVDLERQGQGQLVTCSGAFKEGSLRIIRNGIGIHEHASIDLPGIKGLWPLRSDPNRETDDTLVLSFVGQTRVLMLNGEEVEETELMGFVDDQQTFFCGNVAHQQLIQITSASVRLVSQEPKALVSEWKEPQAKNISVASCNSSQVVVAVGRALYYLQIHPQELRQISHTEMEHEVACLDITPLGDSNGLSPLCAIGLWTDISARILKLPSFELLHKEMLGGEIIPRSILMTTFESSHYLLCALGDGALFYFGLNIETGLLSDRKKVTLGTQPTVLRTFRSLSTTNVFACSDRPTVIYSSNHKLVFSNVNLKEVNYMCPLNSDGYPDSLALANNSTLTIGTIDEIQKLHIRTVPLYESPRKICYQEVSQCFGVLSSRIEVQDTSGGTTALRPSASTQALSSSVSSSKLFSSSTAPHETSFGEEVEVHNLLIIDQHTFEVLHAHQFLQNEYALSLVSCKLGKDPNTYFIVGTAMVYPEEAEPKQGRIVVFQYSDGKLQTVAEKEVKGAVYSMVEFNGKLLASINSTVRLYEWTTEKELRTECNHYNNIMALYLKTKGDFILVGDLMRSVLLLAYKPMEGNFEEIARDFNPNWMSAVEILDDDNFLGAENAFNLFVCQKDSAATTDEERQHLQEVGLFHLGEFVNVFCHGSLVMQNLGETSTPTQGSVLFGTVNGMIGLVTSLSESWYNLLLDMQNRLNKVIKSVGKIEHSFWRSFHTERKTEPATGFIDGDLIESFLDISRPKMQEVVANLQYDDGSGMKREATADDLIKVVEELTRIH

T2 sequence (P53350 whole entry): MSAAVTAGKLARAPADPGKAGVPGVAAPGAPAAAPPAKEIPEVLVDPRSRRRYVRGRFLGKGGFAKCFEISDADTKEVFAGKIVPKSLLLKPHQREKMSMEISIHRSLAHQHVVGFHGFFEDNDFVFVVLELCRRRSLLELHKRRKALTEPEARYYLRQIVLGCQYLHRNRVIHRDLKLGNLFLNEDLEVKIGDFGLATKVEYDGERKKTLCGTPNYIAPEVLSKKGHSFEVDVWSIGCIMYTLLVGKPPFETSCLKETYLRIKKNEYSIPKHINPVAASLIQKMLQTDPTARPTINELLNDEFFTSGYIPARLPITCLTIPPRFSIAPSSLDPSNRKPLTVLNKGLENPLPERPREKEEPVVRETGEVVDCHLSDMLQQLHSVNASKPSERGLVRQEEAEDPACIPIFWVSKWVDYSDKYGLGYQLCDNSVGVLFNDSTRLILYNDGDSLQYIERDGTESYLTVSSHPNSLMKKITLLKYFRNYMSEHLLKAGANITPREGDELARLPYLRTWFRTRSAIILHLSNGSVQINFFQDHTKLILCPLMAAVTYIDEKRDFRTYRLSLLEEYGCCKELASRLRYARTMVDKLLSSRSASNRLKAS

In the case of B1, the “stoichiometry N” value [1] is reported as ~2.

With B2 the “fold weaker binding than Plk4” value (Plk1) was ~3 fold.

B3: binds (Plk4 CPB(581–808)).

B4: binds (DDB1 (purified)).
